What all share (assay): cell_activity
The test system of series [1] is GmUbi3_T03.1 Left TALEN (synthetic construct). Conditions: pair with P6; soybean protoplasts, raw 4.98%; full site SEQ 27.
Series [2] deals with GmUbi3_T02.1 Right TALEN (synthetic construct). Conditions: pair with P3; soybean protoplasts, raw 1.70%; full site SEQ 26.
The test system of series [3] is GmUbi3_T03.1 Right TALEN (synthetic construct). Conditions: pair with P5; soybean protoplasts, raw 4.98%; full site SEQ 27.
Series [4] deals with GmUbi3_T02.1 Left TALEN (synthetic construct). Conditions: pair with P4; soybean protoplasts, raw 1.70%; full site SEQ 26.
In series [5] the test system is GmUbi3_T01.1 Right TALEN (synthetic construct). The conditions noted are these: pair with P1; soybean protoplasts, raw 0.72%; full site SEQ 25.
For series [6], the system named is GmUbi3_T01.1 Left TALEN (synthetic construct). The conditions noted are these: pair with P2; soybean protoplasts, raw 0.72%; full site SEQ 25.

For the sequence “TCATCAACTGTGGAGT (double strand) [GmUbi3_T3 left half-site]”, in series [1], the activity (% normalized mutation frequency) turned out to be 8.12.

In the case of “CCTTCACACAACTCAT (double strand) [GmUbi3_T2 right half-site]”, the activity (% normalized mutation frequency) in series [2] was 2.76.

For “GCCTTGAGCTAGTTGT (double strand) [GmUbi3_T3 right half-site]”, the activity (% normalized mutation frequency) in series [3] stood at 8.12.

As to “CTTCCATGCTTGTCAT (double strand) [GmUbi3_T2 left half-site]”, in series [4], the activity (% normalized mutation frequency) amounted to 2.76.

“CCAACATTACACAACT (double strand) [GmUbi3_T1 right half-site]”: the activity (% normalized mutation frequency) in series [5] is 0.91.

In series [6], “TGTCCTCCGTCTCCGT (double strand) [GmUbi3_T1 left half-site]” returned an activity (% normalized mutation frequency) of 0.91.

Source of the values: patent publication US20190359992.
